# Data taken from patent US20070172423A1, “Composition and method for modulating vasculogenesis for angiogenesis” (priority 1998, published 2007).
# What was measured:
# ischemic myocardium = test: Myocardial ischemia mouse model, Example 18
# Procedure: Acute myocardial ischemia and hind limb ischemia mouse models were performed as previously described (Luttun et al., Nat Med, 2002 1:1; Heymans et al., Nat Med, 1999 5:1135-42). Subcutaneously implanted osmotic minipumps (Alzet, type 2001) were used for continuous protein delivery for 7 days. Human PDGF-CC core domain protein was produced as described (Li et al., Nat Cell Biol, 2000 2:302-309). Fluorescent or color dye microspheres (yellow, 15 μm, Molecular Probes) were administered after maximal vasodilatation (sodium nitroprusside, 50 ng/ml, Sigma) for blood flow measurement, and flow was calculated as described (Carmeliet et al., Nat Med, 1999 5:495-502). For histology, the hearts were harvested seven days after LAD ligation, and sectioned longitudinally (6 μm). Infarcted areas were morphologically inspected after immunohistochemistry staining using thrombomodulin (rabbit anti-TM, for all vessels) and smooth muscle alpha-actin (mouse anti-SMA, for mature SMC covered vessels, Dako), and vessel densities calculated. Gastrocnemius muscles after femoral artery ligation were sectioned transversally and analysed after H&E or immunostainings with the EC marker CD31 (PECAM, rat anti-CD31, Pharmingen). Vessel densities and tissue necrosis/regeneration in the gastrocnemius muscle were analyzed morphometrically using the KS300 image analysis soft ware (Zeiss). Remodeling of collateral vessels in the upper hindlimb after femoral ligation was quantified as reported (Luttun et al., Nat Med, 2002 1:1).
# A previously established mouse model of myocardial ischemia was used to assess whether PDGF-CC is capable of stimulating the revascularization of ischemic myocardium. After coronary ligation, new vessels revascularize the ischemic core from its surrounding border region. For PDGF-CC to stimulate new vessel growth, its receptor, PDGFR-α, should be expressed in the heart. […] To examine whether PDGF-CC could stimulate revascularization of the ischemic myocardium, we delivered, using a minipump, continuously over one week after coronary ligation, recombinant human PDGF-CC core domain protein, which is known to bind and activate PDGFR-α (Li et al., Nat Cell Biol, 2000 2:302-309). […] After seven days, angiogenesis was quantified by counting the number of endothelial cell (EC)-lined vessels in the ischemic area after immunolabeling with thrombomodulin (TM). Vessel maturation (arteriogenesis) was evaluated by counting the arterioles, immunoreactive for smooth muscle cell α-actin (SMA).
# PDGFR-α = biological target: T1, PDGFR-α (Mus musculus, UniProt P26618); test: PDGFR-α activation in infarct border region (immunoprecipitation, pTyr Western blot); format: in vivo; conditions: compared to control, after coronary ligation
# T1 construct: from tissue; host or cells: mouse heart, infarct border region
# T1 sequence (P26618 25-1089): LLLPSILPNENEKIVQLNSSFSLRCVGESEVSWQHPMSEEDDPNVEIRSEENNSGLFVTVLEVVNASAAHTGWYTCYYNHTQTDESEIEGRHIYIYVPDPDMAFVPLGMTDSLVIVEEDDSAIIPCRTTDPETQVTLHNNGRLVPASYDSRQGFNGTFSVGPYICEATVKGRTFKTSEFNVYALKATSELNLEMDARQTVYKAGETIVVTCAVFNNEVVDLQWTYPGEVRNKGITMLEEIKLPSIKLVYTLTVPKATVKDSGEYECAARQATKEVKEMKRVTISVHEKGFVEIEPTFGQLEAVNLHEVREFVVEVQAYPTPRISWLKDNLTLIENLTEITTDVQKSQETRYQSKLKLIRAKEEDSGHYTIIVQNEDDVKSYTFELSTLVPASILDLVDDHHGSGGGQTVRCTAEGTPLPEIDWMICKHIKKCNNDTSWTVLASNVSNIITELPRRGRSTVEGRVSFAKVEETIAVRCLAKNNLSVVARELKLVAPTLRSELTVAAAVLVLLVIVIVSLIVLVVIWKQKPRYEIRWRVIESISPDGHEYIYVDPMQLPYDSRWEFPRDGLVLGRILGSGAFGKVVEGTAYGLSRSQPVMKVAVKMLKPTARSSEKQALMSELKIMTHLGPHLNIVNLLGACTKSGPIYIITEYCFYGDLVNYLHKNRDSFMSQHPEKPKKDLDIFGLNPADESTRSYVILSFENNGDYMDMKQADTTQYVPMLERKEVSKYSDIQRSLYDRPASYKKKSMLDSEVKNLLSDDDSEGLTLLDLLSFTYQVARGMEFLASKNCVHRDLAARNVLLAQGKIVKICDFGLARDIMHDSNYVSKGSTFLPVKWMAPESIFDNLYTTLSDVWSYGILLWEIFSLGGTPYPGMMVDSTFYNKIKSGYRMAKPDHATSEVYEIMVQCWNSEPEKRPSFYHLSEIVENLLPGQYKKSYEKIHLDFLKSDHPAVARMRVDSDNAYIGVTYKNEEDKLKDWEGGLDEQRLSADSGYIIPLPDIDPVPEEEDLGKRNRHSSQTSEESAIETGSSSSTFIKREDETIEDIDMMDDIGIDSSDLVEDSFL
# PDGF alpha receptors = PDGF alpha receptors (Homo sapiens, UniProt P16234); test: PDGF alpha-receptor phosphorylation in PAE cells; format: cell-based; design: expressed in transfected cells; conditions: 100 ng/ml
# Chain of PDGF alpha receptors (P16234 24-1089): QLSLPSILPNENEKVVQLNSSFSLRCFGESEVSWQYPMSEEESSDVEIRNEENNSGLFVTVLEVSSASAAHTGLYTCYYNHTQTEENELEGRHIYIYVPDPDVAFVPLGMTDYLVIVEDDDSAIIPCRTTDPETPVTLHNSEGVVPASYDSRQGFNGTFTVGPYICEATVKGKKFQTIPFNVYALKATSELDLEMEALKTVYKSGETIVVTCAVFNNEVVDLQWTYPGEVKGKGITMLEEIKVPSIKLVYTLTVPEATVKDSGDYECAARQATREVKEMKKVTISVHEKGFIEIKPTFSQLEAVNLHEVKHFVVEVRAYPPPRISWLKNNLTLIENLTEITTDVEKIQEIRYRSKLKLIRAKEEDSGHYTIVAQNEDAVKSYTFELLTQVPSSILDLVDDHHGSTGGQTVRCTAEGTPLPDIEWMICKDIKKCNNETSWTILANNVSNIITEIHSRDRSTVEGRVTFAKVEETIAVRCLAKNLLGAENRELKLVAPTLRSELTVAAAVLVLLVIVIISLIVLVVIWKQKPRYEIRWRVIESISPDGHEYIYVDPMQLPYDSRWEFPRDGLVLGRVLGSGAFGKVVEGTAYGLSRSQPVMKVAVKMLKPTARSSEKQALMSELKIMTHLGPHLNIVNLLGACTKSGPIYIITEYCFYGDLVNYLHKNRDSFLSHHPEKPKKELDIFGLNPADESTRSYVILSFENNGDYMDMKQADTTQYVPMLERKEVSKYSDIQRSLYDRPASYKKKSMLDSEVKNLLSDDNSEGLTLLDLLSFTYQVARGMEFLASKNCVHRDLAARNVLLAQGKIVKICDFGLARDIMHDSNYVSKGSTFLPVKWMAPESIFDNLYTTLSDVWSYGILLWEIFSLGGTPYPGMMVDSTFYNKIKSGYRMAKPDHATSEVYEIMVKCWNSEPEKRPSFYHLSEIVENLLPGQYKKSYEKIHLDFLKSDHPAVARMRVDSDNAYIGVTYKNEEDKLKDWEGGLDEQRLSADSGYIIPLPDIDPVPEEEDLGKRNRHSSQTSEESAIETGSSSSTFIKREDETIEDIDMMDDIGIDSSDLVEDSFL
# Procedure: To test if PDGF-C causes increased phosphorylation of the PDGF alpha-receptor, full length and truncated PDGF-C were tested for their capacity to bind to the PDGF alpha-receptor and stimulate increased phosphorylation. Serum-starved porcine aortic endothelial (PAE) cells stably expressing the human PDGF alpha-receptor were incubated on ice for 90 minutes with PBS supplemented with 1 mg/ml BSA and 10 ng/ml of PDGF-AA, 100 ng/ml of full length human PDGF-CC homodimers (flPDGF-CC), 100 ng/ml of truncated PDGF-CC homodimers (cPDGF-CC), or a mixture of 10 ng/ml of PDGF-AA and 100 ng/ml of truncated PDGF-CC. Full length and truncated PDGF-CC homodimers were produced as described above. Sixty minutes after the addition of the polypeptides, the cells were lysed in lysis buffer (20 mM tris-HCl, pH 7.5, 0.5% Triton X-100, 0.5% deoxycholic acid, 10 mM EDTA, 1 mM orthovanadate, 1 mM PMSF 1% Trasylol). […] Bound antibodies were detected using enhanced chemiluminescence (ECL, Amersham Inc). The filters were then stripped and reprobed with the PDGF alpha-receptor rabbit antisera, and the amount of receptors was determined by incubation with horseradish peroxidase-conjugated anti-rabbit antibodies. Bound antibodies were detected using enhanced chemiluminescence (ECL, Amersham Inc). […]
# [1] = 4.5 μg/day, minipump, seven days
molecule,measurement,setting,value
"PDGF-CC: recombinant human PDGF-CC core domain homodimer, residues 230-345 of full-length PDGF-C (SEQ ID NO:40), produced in baculovirus infected insect cells (protein, homodimer; PDGF-C core domain) GRKSRVVDLNLLTEEVRLYSCTPRNFSVSIREELKRTDTIFWPGCLLVKRCGGNCACCLHNCNECQCVPSKVTKKYHEVLQLRPKTGVRGLHKSLTDVALEHHEECDCVCRGSTGG",TM-positive vessel density,"ischemic myocardium; 1.5 μg/day, minipump, seven days",minimally affected
same,SMA positive vessels,"ischemic myocardium; 1.5 μg/day, minipump, seven days, ischemic area",53.1±3.7 vessels/mm^2
same,increase in number of SMA-positive arterioles,"ischemic myocardium; 1.5 μg/day, minipump, seven days, vs saline",1.36 fold
same,angiogenesis (TM-positive vessels in ischemic area),ischemic myocardium; [1],significantly stimulated
same,arteriogenesis (SMA-positive arterioles in ischemic area),ischemic myocardium; [1],significantly stimulated
same,blood flow (perfusion of the ischemic myocardial region),"ischemic myocardium; 4.5 μg/day, n=7-9",2.2 ± 0.2 mL/min/g
same,"hemorrhage, edema or fibrosis in treated hearts","ischemic myocardium; minipump, seven days","No signs of hemorrhage, edema or fibrosis"
same,"tolerability (weight loss, inactivity)","ischemic myocardium; minipump, seven days",no signs of toxicity
same,vessel density in other organs,ischemic myocardium; non-ischemic organs,no differences
same,amount of active PDGFR-α in the border region,PDGFR-α,increased
same,PDGF alpha-receptor tyrosine phosphorylation,PDGF alpha receptors,efficiently induced
